For 38 molecules, normalised SPOT signal, Boehringer light units (BLU); mean over the file's lines of this peptide results are on record in article PMC314469, “Protein Interaction Networks by Proteome Peptide Scanning” (PLoS Biology, 2004).

To fix the notation:
T1: amphyphisin SH3 (AMPH_HUMAN), P49418
T1 chain: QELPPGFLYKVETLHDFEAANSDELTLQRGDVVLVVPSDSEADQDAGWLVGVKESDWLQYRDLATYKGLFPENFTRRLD

B1: Q9Y5I0 277-290 (peptide)
chain: IVYSFRRPVWPAVV
B2: BAC03837 101-115 (peptide)
chain: ALTSPGRPPMGFTT
B3: Q99651 220-234 (peptide)
chain: KEMVPAKPPKGLVG
B4: Q9Y4F1 101-114 (peptide)
chain: IVKQIRRPKHVVVK
B5: Q9P2M4 294-308 (peptide)
chain: KAGRPSKPPSPKQN
B6: Q92508 1232-1245 (peptide)
chain: AMLSIPRPSKRFWM
B7: P42702 4-17 (peptide)
chain: IYVSLKRPSWMVDN
B8: P24821 757-770 (peptide)
chain: ITKSLRRPETSYRQ
B9: Q9BZI7 330-343 (peptide)
chain: KDEKPKRPEDESGR
B10: Q9UJU8 278-291 (peptide)
chain: IYTELSRPSKRRMQ
B11: P50749 58-71 (peptide)
chain: ISWGLRRPIRLQMQ
B12: Q9H5F9 434-447 (peptide)
chain: ITLTPVRPDRTPRP
B13: Q9H7K4 46-60 (peptide)
chain: KDPGPPRPPAGATQ
B14: Q8WZ42 18722-18736 (peptide)
chain: KASRPIKPPGPPIN
B15: Q9H2U9 455-468 (peptide)
chain: KAGSISRPAKDESD
B16: Q96T13 405-418 (peptide)
chain: ISFHPKRPVHILLH
B17: Q01118 1027-1040 (peptide)
chain: ISMKFLRPLRVLSQ
B18: O00155 224-237 (peptide)
chain: ISRRLRRPPHVGRA
B19: Q15911 1537-1550 (peptide)
chain: KFLDPSRPYKSTVS
B20: Q9Y6J0 1992-2005 (peptide)
chain: KDPGPPRPHRPEAT
B21: Q9P283 1-15 (peptide)
chain: AAPFPDRPPAHLVS
B22: Q14699 89-102 (peptide)
chain: IYSTLKRPQVETKI
B23: Q9UFP7 465-479 (peptide)
chain: ITVSPNKPPAVSPG
B24: Q9UFC0 257-271 (peptide)
chain: KANSPEKPPEAGAA
B25: Q9H6A9 265-278 (peptide)
chain: KDLALLRPSKRQPP
B26: P78347 180-193 (peptide)
chain: ISFIIKRPFLEPKK
B27: O75643 1042-1055 (peptide)
chain: ISSQIERPIRIVAL
B28: AAH32349 3-17 (peptide)
chain: KAVLPLRPPWPLWG
B29: O14514 1249-1262 (peptide)
chain: ITGTLKRPSLPEEE
B30: Q9Y4Z6 67-80 (peptide)
chain: KAISFLRPTKENVD
B31: Q9H6Z2 106-119 (peptide)
chain: ALTLPRRPFLHSST
B32: Q9UJU2 290-303 (peptide)
chain: KEQEPKRPHIKKPL
B33: Q9C0I2 1104-1117 (peptide)
chain: KAPPPTRPKRNDST
B34: Q92613 102-115 (peptide)
chain: KDVLFIRPRKYIHS
B35: Q9C0A1 71-84 (peptide)
chain: KFLDPARPYKSTVS
B36: Q9H669 126-139 (peptide)
chain: ISHRLRRPGAPPST
B37: Q9ULL8 1100-1114 (peptide)
chain: KAFPPPRPPPPNWE
B38: Q01826 463-477 (peptide)
chain: ISTPPSRPPQVKTA

The target in one test is T1, amphyphisin SH3 (AMPH_HUMAN), P49418. The test is described as follows: SPOT array.
Regarding B1, the normalised SPOT signal, Boehringer light units (BLU); mean over the file's lines of this peptide turned out to be 27.4.

B2 had a normalised SPOT signal, Boehringer light units (BLU); mean over the file's lines of this peptide of 51.2.

B3: the normalised SPOT signal, Boehringer light units (BLU); mean over the file's lines of this peptide stood at 56.3.

Turning to B4, the normalised SPOT signal, Boehringer light units (BLU); mean over the file's lines of this peptide amounted to 13.

Turning to B5, the normalised SPOT signal, Boehringer light units (BLU); mean over the file's lines of this peptide turned out to be 28.

Molecule B6 came in with a normalised SPOT signal, Boehringer light units (BLU); mean over the file's lines of this peptide of 258.

In turn, B7 displayed a normalised SPOT signal, Boehringer light units (BLU); mean over the file's lines of this peptide of 56.9.

The molecule B8 returned a normalised SPOT signal, Boehringer light units (BLU); mean over the file's lines of this peptide of 39.1.

B9 registered a normalised SPOT signal, Boehringer light units (BLU); mean over the file's lines of this peptide of 30.5.

As for B10, the normalised SPOT signal, Boehringer light units (BLU); mean over the file's lines of this peptide worked out at 85.

Consider B11, for which the normalised SPOT signal, Boehringer light units (BLU); mean over the file's lines of this peptide was 929.

B12: the normalised SPOT signal, Boehringer light units (BLU); mean over the file's lines of this peptide is 6730.

As to B13, the normalised SPOT signal, Boehringer light units (BLU); mean over the file's lines of this peptide came out at 43.9.

Molecule B14 registered a normalised SPOT signal, Boehringer light units (BLU); mean over the file's lines of this peptide of 48.3.

B15: the normalised SPOT signal, Boehringer light units (BLU); mean over the file's lines of this peptide amounted to 164.

For B16, the normalised SPOT signal, Boehringer light units (BLU); mean over the file's lines of this peptide turned out to be 27.3.

Turning to B17, the normalised SPOT signal, Boehringer light units (BLU); mean over the file's lines of this peptide worked out at 13100.

Regarding B18, the normalised SPOT signal, Boehringer light units (BLU); mean over the file's lines of this peptide stood at 56.5.

As for B19, the normalised SPOT signal, Boehringer light units (BLU); mean over the file's lines of this peptide was 21.4.

Turning to B20, the normalised SPOT signal, Boehringer light units (BLU); mean over the file's lines of this peptide was 1150.

The molecule B21 showed a normalised SPOT signal, Boehringer light units (BLU); mean over the file's lines of this peptide of 48.1.

In turn, B22 gave a normalised SPOT signal, Boehringer light units (BLU); mean over the file's lines of this peptide of 19.8.

Take B23: the normalised SPOT signal, Boehringer light units (BLU); mean over the file's lines of this peptide came to 41.6.

Take B24: the normalised SPOT signal, Boehringer light units (BLU); mean over the file's lines of this peptide worked out at 40.8.

For B25, the normalised SPOT signal, Boehringer light units (BLU); mean over the file's lines of this peptide came out at 66.4.

B26 showed a normalised SPOT signal, Boehringer light units (BLU); mean over the file's lines of this peptide of 42.4.

B27 showed a normalised SPOT signal, Boehringer light units (BLU); mean over the file's lines of this peptide of 535.

The molecule B28 registered a normalised SPOT signal, Boehringer light units (BLU); mean over the file's lines of this peptide of 100.

In the case of B29, the normalised SPOT signal, Boehringer light units (BLU); mean over the file's lines of this peptide came to 36.3.

B30 returned a normalised SPOT signal, Boehringer light units (BLU); mean over the file's lines of this peptide of 56.2.

As for B31, the normalised SPOT signal, Boehringer light units (BLU); mean over the file's lines of this peptide stood at 1530.

B32 yielded a normalised SPOT signal, Boehringer light units (BLU); mean over the file's lines of this peptide of 39.

Take B33: the normalised SPOT signal, Boehringer light units (BLU); mean over the file's lines of this peptide was found to be 8570.

B34 showed a normalised SPOT signal, Boehringer light units (BLU); mean over the file's lines of this peptide of 66.7.

B35 gave a normalised SPOT signal, Boehringer light units (BLU); mean over the file's lines of this peptide of 20.4.

B36: the normalised SPOT signal, Boehringer light units (BLU); mean over the file's lines of this peptide worked out at 9.8.

The molecule B37 gave a normalised SPOT signal, Boehringer light units (BLU); mean over the file's lines of this peptide of 146.

In turn, B38 returned a normalised SPOT signal, Boehringer light units (BLU); mean over the file's lines of this peptide of 216.

The target in another test is endophilin SH3 (SH3G2_HUMAN), Q99962. The test can be described thus: SPOT array.
With B1, the normalised SPOT signal, Boehringer light units (BLU); mean over the file's lines of this peptide stood at 147.

Take B2: the normalised SPOT signal, Boehringer light units (BLU); mean over the file's lines of this peptide is 260.

Molecule B3 gave a normalised SPOT signal, Boehringer light units (BLU); mean over the file's lines of this peptide of 276.

Consider B4, for which the normalised SPOT signal, Boehringer light units (BLU); mean over the file's lines of this peptide worked out at 43.3.

Molecule B5 came in with a normalised SPOT signal, Boehringer light units (BLU); mean over the file's lines of this peptide of 3150.

For the molecule B6, the normalised SPOT signal, Boehringer light units (BLU); mean over the file's lines of this peptide is 20.1.

Turning to B7, the normalised SPOT signal, Boehringer light units (BLU); mean over the file's lines of this peptide is 46.4.

With B8, the normalised SPOT signal, Boehringer light units (BLU); mean over the file's lines of this peptide is 46.8.

Regarding B9, the normalised SPOT signal, Boehringer light units (BLU); mean over the file's lines of this peptide amounted to 314.

Molecule B10 had a normalised SPOT signal, Boehringer light units (BLU); mean over the file's lines of this peptide of 60.3.

B11: the normalised SPOT signal, Boehringer light units (BLU); mean over the file's lines of this peptide was determined as 730.

As to B12, the normalised SPOT signal, Boehringer light units (BLU); mean over the file's lines of this peptide turned out to be 6160.

As for B13, the normalised SPOT signal, Boehringer light units (BLU); mean over the file's lines of this peptide is 229.

Molecule B14 had a normalised SPOT signal, Boehringer light units (BLU); mean over the file's lines of this peptide of 2120.

In turn, B15 registered a normalised SPOT signal, Boehringer light units (BLU); mean over the file's lines of this peptide of 127.

Molecule B16 showed a normalised SPOT signal, Boehringer light units (BLU); mean over the file's lines of this peptide of 173.

B17 gave a normalised SPOT signal, Boehringer light units (BLU); mean over the file's lines of this peptide of 925.

B18 returned a normalised SPOT signal, Boehringer light units (BLU); mean over the file's lines of this peptide of 5.9.

With B19, the normalised SPOT signal, Boehringer light units (BLU); mean over the file's lines of this peptide was determined as 86.2.

Consider B20, for which the normalised SPOT signal, Boehringer light units (BLU); mean over the file's lines of this peptide was found to be 412.

On to B21, for which the normalised SPOT signal, Boehringer light units (BLU); mean over the file's lines of this peptide is 90.4.

In turn, B22 gave a normalised SPOT signal, Boehringer light units (BLU); mean over the file's lines of this peptide of 114.

Turning to B23, the normalised SPOT signal, Boehringer light units (BLU); mean over the file's lines of this peptide came out at 59.3.

As for B24, the normalised SPOT signal, Boehringer light units (BLU); mean over the file's lines of this peptide was 47.6.

On to B25, for which the normalised SPOT signal, Boehringer light units (BLU); mean over the file's lines of this peptide worked out at 226.

As for B26, the normalised SPOT signal, Boehringer light units (BLU); mean over the file's lines of this peptide stood at 130.

Consider B27, for which the normalised SPOT signal, Boehringer light units (BLU); mean over the file's lines of this peptide was determined as 173.

In the case of B28, the normalised SPOT signal, Boehringer light units (BLU); mean over the file's lines of this peptide worked out at 11600.

The molecule B29 showed a normalised SPOT signal, Boehringer light units (BLU); mean over the file's lines of this peptide of 18.8.

In turn, B30 returned a normalised SPOT signal, Boehringer light units (BLU); mean over the file's lines of this peptide of 68.6.

Regarding B31, the normalised SPOT signal, Boehringer light units (BLU); mean over the file's lines of this peptide stood at 7630.

Take B32: the normalised SPOT signal, Boehringer light units (BLU); mean over the file's lines of this peptide amounted to 63.9.

B33 came in with a normalised SPOT signal, Boehringer light units (BLU); mean over the file's lines of this peptide of 3140.

On to B34, for which the normalised SPOT signal, Boehringer light units (BLU); mean over the file's lines of this peptide stood at 86.6.

On to B35, for which the normalised SPOT signal, Boehringer light units (BLU); mean over the file's lines of this peptide was determined as 43.5.

In turn, B36 showed a normalised SPOT signal, Boehringer light units (BLU); mean over the file's lines of this peptide of 120.

B37 displayed a normalised SPOT signal, Boehringer light units (BLU); mean over the file's lines of this peptide of 13600.

B38 returned a normalised SPOT signal, Boehringer light units (BLU); mean over the file's lines of this peptide of 1960.
